# Substitutions are numbered along the chain they refer to. Read-outs that look alike come from different tables or passages of the source.
# T1: FcgRIIa H (human, UniProt P12318)
# T1 chain: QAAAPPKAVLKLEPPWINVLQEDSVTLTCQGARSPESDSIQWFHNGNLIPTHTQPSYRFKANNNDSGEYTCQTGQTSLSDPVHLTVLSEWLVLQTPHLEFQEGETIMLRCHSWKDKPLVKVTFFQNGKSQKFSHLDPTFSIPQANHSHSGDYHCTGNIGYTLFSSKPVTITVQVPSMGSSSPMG
# T2: FcgRIIb (human, UniProt P31994)
# T2 chain: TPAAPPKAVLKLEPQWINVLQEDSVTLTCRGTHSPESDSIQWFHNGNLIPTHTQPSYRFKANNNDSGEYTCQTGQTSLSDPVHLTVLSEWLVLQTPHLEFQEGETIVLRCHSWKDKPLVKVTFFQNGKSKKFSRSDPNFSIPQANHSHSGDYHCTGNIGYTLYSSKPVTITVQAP
# T3: FcgRIIa R (human, UniProt P12318)
# T3 chain: T1 chain with H134R
# T4: FcgRIa (human, UniProt P12314)
# T4 chain: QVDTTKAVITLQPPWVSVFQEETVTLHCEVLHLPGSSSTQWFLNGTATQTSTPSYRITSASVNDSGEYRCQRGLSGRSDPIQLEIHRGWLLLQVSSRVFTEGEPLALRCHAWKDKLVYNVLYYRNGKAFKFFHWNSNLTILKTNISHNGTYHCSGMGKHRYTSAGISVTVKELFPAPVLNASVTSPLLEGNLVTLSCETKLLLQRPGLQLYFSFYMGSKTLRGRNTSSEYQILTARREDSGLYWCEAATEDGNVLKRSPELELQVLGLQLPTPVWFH
# B1: H240-Kn120/H240-Hl073/L73-k0 (antibody)
# chain 1: QDQLVQSGAEVKKPGASVKVSCKASGFNIKDTYIQWVRQAPGQGLEWMGRIDPLRKQTKYREKFEGRVTITADTSTNTAYMELSSLRSEDTAVYYCVRSGREFDYWGQGTLVTVSSASTKGPSVFPLAPSSKSTSGGTAALGCLVKDYFPEPVTVSWNSGALTSGVHTFPAVLQSSGLYSLSSVVTVPSSSLGTQTYICNVNHKPSNTKVDKKVEPKSCDKTHTCPPCPAPEYYWGPMVFLFPPKPKDTLMISRTPEVTCVVVDVSDEDPEVKFNWYVDGVEVHNAKTKPREEQYNATYRVVSVLTVLHQDWLNGKEYKCKVSNKDLPAPIEKTISKAKGQPREPQVCTLPPSRDELTKNQVSLWCLVKGFYPSDIAVEWESNGQPENNYKTTPPVLDSDGSFFLYSKLTVDKSRWQQGNVFSCSVMHEALHNHYTQKSLSLSP
# chain 2: QDQLVQSGAEVKKPGASVKVSCKASGFNIKDTYIQWVRQAPGQGLEWMGRIDPLRKQTKYREKFEGRVTITADTSTNTAYMELSSLRSEDTAVYYCVRSGREFDYWGQGTLVTVSSASTKGPSVFPLAPSSKSTSGGTAALGCLVKDYFPEPVTVSWNSGALTSGVHTFPAVLQSSGLYSLSSVVTVPSSSLGTQTYICNVNHKPSNTKVDKKVEPKSCDKTHTCPPCPAPELLSGPSVFLFPPKPKDTLMISRTPEVTCVVVDVSHEEPEVKFNWYVDGVEVHNAKTKPREEQYNSTYRVVSVLTVLHQDWLNGKEYKCKVSNDALPKPIEETISKAKGQPREPQVYTLPPSRCELTKNQVSLSCAVKGFYPSDIAVEWESNGQPENNYKTTPPVLDSDGSFFLVSKLTVDKSRWQQGNVFSCSVMHEALHNHYTQKSLSLSP
# chain 3: DIQMTQSPSSLSASVGDRVTITCRASQDIHKYIAWYQQKPGQAPRLLIQYTSTLQPGVPSRFSGSGSGTDYTFTISSLQPEDIATYYCLQYEQLRTFGGGTKVEIKRTVAAPSVFIFPPSDEQLKSGTASVVCLLNNFYPREAKVQWKVDNALQSGNSQESVTEQDSKDSTYSLSSTLTLSKADYEKHKVYACEVTHQGLSSPVTKSFNRGEC
# B2: H240-Kn120/H240-Hl086/L73-k0 (antibody)
# chain 1: B1 chain 1
# chain 2: B1 chain 2 with S235I
# chain 3: B1 chain 3
# B3: H240-Kn120/H240-Hl089/L73-k0 (antibody)
# chain 1: B1 chain 1
# chain 2: B1 chain 2 with S235T
# chain 3: B1 chain 3
# B4: H240-Kn180/H240-Hl068/L73-k0 (antibody)
# chain 1: B1 chain 1 with E293R
# chain 2: B1 chain 2 with S235G
# chain 3: B1 chain 3
# B5: H240-Kn120/H240-Hl085/L73-k0 (antibody)
# chain 1: B1 chain 1
# chain 2: B1 chain 2 with S235V
# chain 3: B1 chain 3
# B6: H240-Kn179/H240-Hl068/L73-k0 (antibody)
# chain 1: B1 chain 1 with E293K
# chain 2: B1 chain 2 with S235G
# chain 3: B1 chain 3
# B7: GpH7-A5/GpH7-B78/GpL16-k0 (antibody)
# chain 1: not shown
# chain 2: QVQLVQSGAEVKKPGASVTVSCKASGYTFTDYEMHWIRQPPGEGLEWIGAIDPKTGDTAYSESFQDRVTLTADKSTSTAYMELSSLTSEDTAVYYCTRFYSYTYWGQGTLVTVSSASTKGPSVFPLAPSSKSTSGGTAALGCLVKDYFPEPVTVSWNSGALTSGVHTFPAVLQSSGLYSLSSVVTVPSSSLGTQTYICNVNHKPSNTKVDKKVEPKSCDKTHTCPPCPAPELLGGPDVFLFPPKPKDTLMISRTPEVTCVVVDVSHEDPEVKFNWYVDGVEVHNAKTKPREEQYNSTYRVVSVLTVLHQDWLNGKEYKCKVSNKALPLPEEKTISKAKGQPREPQVYTLPPSRDELTKNQVSLTCLVKGFYPSDIAVEWESNGQPENNYKTTPPVLDSDGSFFLYSKLTVDKSRWQQGNVFSCSVMHEALHNHYTQESLSLSP
# chain 3: DIVMTQSPLSLPVTPGEPASISCQASESLVHSNRNTYLHWYLQKPGQSPQLLIYKVSNRFSGVPDRFSGSGSGTDFTLKISRVEAEDVGVYYCSQNTHVPPTFGQGTKVEIERTVAAPSVFIFPPSDEQLKSGTASVVCLLNNFYPREAKVQWKVDNALQSGNSQESVTEQDSKDSTYSLSSTLTLSKADYEKHKVYACEVTHQGLSSPVTKSFNRGEC
# B8: GpH7-A5/GpH7-B3/GpL16-k0 (antibody)
# chain 1: not shown
# chain 2: not shown
# chain 3: B7 chain 3
# B9: GpH7-G1d/GpL16-k0 (antibody)
# chain 1: not shown
# chain 2: B7 chain 3
# B10: GpH7-TA7/GpH7-TA45/GpL16-k0 (antibody)
# chain 1: B7 chain 2 with L232Y, G234W, D237S, S296A, L328A, E330I, D354K, H433R, E437K
# chain 2: B7 chain 2 with L232Y, G234W, D237S, S296A, L328A, E330I
# chain 3: B7 chain 3
# Key:
# Test in all cases: SPR
# [1] = target: FcgRIIIa V (human, UniProt P08637)
# Sequence of FcgRIIIa V (P08637 17-208 F176V): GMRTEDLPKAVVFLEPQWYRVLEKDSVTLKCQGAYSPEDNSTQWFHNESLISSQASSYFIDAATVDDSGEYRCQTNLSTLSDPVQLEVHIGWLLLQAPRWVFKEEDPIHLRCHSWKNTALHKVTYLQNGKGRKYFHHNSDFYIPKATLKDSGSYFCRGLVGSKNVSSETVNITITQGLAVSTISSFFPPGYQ
# [2] = target: T1, FcgRIIa H
# [3] = target: T2, FcgRIIb
# [4] = target: T3, FcgRIIa R
# [5] = target: T5, FcgRIIIa F (human, UniProt P08637)
# T5 sequence (P08637 17-208): as the sequence (P08637 17-208 F176V) above, with V160F counted along it
# [6] = target: T4, FcgRIa
# [7] = target: T2, FcgRIIb
# [8] = target: T5, FcgRIIIa F; remark: listed apart in the source
binder,measurement,setting,value
B1,Kd,[1],1.8 nM
same,Kd,[2],21 nM
same,Kd,[3],210 nM
same,Kd,[4],15 nM
same,Kd,[5],8.2 nM
same,Kd,[6],< 0.028 nM
B2,Kd,[1],14 nM
same,Kd,[2],53 nM
same,Kd,[3],480 nM
same,Kd,[4],22 nM
same,Kd,[5],33 nM
same,Kd,[6],1.4 nM
B3,Kd,[1],5.4 nM
same,Kd,[2],41 nM
same,Kd,[3],190 nM
same,Kd,[4],14 nM
same,Kd,[5],12 nM
same,Kd,[6],0.18 nM
B4,Kd,[1],0.67 nM
same,Kd,[2],33 nM
same,Kd,[3],240 nM
same,Kd,[4],21 nM
same,Kd,[5],3.1 nM
same,Kd,[6],0.3 nM
B5,Kd,[1],6.2 nM
same,Kd,[2],46 nM
same,Kd,[3],390 nM
same,Kd,[4],19 nM
same,Kd,[5],23 nM
same,Kd,[6],87 nM
B6,Kd,[1],0.98 nM
same,Kd,[2],41 nM
same,Kd,[3],260 nM
same,Kd,[4],26 nM
same,Kd,[5],4.8 nM
same,Kd,[6],0.3 nM
B7,Kd,[7],430 nM
same,Kd,[8],54 nM
B8,Kd,[7],3100 nM
same,Kd,[8],1600 nM
B9,Kd,[7],3100 nM
same,Kd,[8],1200 nM
B10,Kd,[7],18000 nM
same,Kd,[8],3300 nM

# Source: patent publication US10766960 (dated 2020)
